# Test results published in US20070048219A1.
# Target: IL-8 receptors on human neutrophils
# Experiment: unlabeled IL-8 displaces 125I-IL-8 from IL-8 receptors on human neutrophils; value in the legend box without a column head, IC50
substance,measurement,value
"recombinant human IL-8, (ser-IL-8)72 (from UniProt P10145 28-99) (ligand)",IC50,0.078 nM
